Laboratory results reported in US20160354480A1 (VECT HORUS, published 2016).
One block for each binder: values may come before it. Bridge positions count the residues as written; N and C are the ends. Square brackets hold non-standard residues; d marks the D form. Ends that are not written are not given here. * marks the point of attachment. Pen = CC(C)(S)[C@H](N)C(=O)O; Tle = CC(C)(C)[C@H](N)C(=O)O; Pip = O=C(O)[C@@H]1CCCCN1; Propionyl = CCC(=O)*; Sar = CNCC(=O)O

How the values were obtained:
[1] = target: T1, human neurotensin receptor type 1 (human, UniProt P30989 1-418); assay: competition with [3H]-neurotensin on membranes of CHO cells expressing human NTR-1; Ki from mean IC50 by Cheng-Prusoff
T1 construct: whole, on cells; Used as cell membrane homogenates (0.5 ug/well), not intact cells; also called hNTR-1; Human NTR-1
T1 sequence (P30989 whole entry): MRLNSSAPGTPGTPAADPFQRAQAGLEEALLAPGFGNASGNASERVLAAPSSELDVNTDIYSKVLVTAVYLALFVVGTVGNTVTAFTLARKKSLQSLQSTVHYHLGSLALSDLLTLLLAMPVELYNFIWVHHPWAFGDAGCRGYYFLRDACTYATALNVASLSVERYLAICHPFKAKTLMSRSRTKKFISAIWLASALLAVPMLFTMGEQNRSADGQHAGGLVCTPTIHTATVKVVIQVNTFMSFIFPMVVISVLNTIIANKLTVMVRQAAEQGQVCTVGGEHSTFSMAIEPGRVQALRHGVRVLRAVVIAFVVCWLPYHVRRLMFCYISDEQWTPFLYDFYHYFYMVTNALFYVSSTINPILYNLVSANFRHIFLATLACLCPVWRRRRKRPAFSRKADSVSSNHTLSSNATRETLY

[2] = target: T2, rat neurotensin receptor type 1 (rat, UniProt P20789 1-424); assay: competition with [3H]-neurotensin on membranes of HEK 293 cells expressing rat NTR-1; Ki from mean IC50 by Cheng-Prusoff
T2 construct: whole, on cells; Used as membrane homogenates of transfected HEK 293 cells (0.75 ug/well), not intact cells; also called rNTR-1; rNTR1
T2 sequence (P20789 whole entry): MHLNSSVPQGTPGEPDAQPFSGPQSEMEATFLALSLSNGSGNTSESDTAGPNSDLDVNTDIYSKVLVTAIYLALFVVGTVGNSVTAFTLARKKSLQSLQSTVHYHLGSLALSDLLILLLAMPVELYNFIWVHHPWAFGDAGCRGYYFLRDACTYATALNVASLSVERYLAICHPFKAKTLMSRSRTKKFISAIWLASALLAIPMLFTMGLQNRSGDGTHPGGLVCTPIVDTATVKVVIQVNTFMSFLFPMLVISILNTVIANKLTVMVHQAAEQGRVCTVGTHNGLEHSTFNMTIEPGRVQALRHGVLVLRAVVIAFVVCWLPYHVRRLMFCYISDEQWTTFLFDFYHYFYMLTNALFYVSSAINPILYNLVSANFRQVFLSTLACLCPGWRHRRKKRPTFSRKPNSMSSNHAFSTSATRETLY

Ki [1]: 0.15 nM | Ki [2]: 0.12 nM
B1: compound XVI, SEQ ID NO: 9-[Lys8, Tle12]NT(8-13) (peptide)
peptide: Propionyl-[dC]M[Pip]RLR[Sar]CKRPY[Tle]L-OH
modifications: disulfide 1-8
SMILES: CCC(=O)N[C@@H]1CSSC[C@@H](C(=O)N[C@@H](CCCCN)C(=O)N[C@@H](CCCNC(=N)N)C(=O)N2CCC[C@H]2C(=O)N[C@@H](Cc2ccc(O)cc2)C(=O)N[C@H](C(=O)N[C@@H](CC(C)C)C(=O)O)C(C)(C)C)NC(=O)CN(C)C(=O)[C@H](CCCNC(=N)N)NC(=O)[C@H](CC(C)C)NC(=O)[C@H](CCCNC(=N)N)NC(=O)[C@@H]2CCCCN2C(=O)[C@H](CCSC)NC1=O

Ki [1]: 0.47 nM | Ki [2]: 0.19 nM
B2: compound XVII, SEQ ID NO: 9-[Lys9, Tle12]NT(8-13) (peptide)
peptide: Propionyl-[dC]M[Pip]RLR[Sar]CRKPY[Tle]L-OH
modifications: disulfide 1-8
SMILES: CCC(=O)N[C@@H]1CSSC[C@@H](C(=O)N[C@@H](CCCNC(=N)N)C(=O)N[C@@H](CCCCN)C(=O)N2CCC[C@H]2C(=O)N[C@@H](Cc2ccc(O)cc2)C(=O)N[C@H](C(=O)N[C@@H](CC(C)C)C(=O)O)C(C)(C)C)NC(=O)CN(C)C(=O)[C@H](CCCNC(=N)N)NC(=O)[C@H](CC(C)C)NC(=O)[C@H](CCCNC(=N)N)NC(=O)[C@@H]2CCCCN2C(=O)[C@H](CCSC)NC1=O

Ki [1]: 6.34 nM | Ki [2]: 0.03 nM
B3: compound XIX, SEQ ID NO: 9-[Lys8, Trp11, Tle12]NT(8-13) (peptide)
peptide: Propionyl-[dC]M[Pip]RLR[Sar]CKRPW[Tle]L-OH
modifications: disulfide 1-8
SMILES: CCC(=O)N[C@@H]1CSSC[C@@H](C(=O)N[C@@H](CCCCN)C(=O)N[C@@H](CCCNC(=N)N)C(=O)N2CCC[C@H]2C(=O)N[C@@H](Cc2c[nH]c3ccccc23)C(=O)N[C@H](C(=O)N[C@@H](CC(C)C)C(=O)O)C(C)(C)C)NC(=O)CN(C)C(=O)[C@H](CCCNC(=N)N)NC(=O)[C@H](CC(C)C)NC(=O)[C@H](CCCNC(=N)N)NC(=O)[C@@H]2CCCCN2C(=O)[C@H](CCSC)NC1=O

Ki [1]: 0.11 nM | Ki [2]: 0.08 nM
B4: compound XX, SEQ ID NO: 11-[Lys8, Tle12]NT(8-13) (peptide)
peptide: Propionyl-[dC]M[Pip]RLR[Sar][Pen]KRPY[Tle]L-OH
modifications: disulfide 1-8
SMILES: CCC(=O)N[C@@H]1CSSC(C)(C)[C@@H](C(=O)N[C@@H](CCCCN)C(=O)N[C@@H](CCCNC(=N)N)C(=O)N2CCC[C@H]2C(=O)N[C@@H](Cc2ccc(O)cc2)C(=O)N[C@H](C(=O)N[C@@H](CC(C)C)C(=O)O)C(C)(C)C)NC(=O)CN(C)C(=O)[C@H](CCCNC(=N)N)NC(=O)[C@H](CC(C)C)NC(=O)[C@H](CCCNC(=N)N)NC(=O)[C@@H]2CCCCN2C(=O)[C@H](CCSC)NC1=O

Ki [1]: 0.22 nM | Ki [2]: 0.68 nM
Binder: KRPY[Tle]L (X stands for Tle) [[Lys8, Tle12]NT(8-13)]

Ki [1]: 1.7 nM | Ki [2]: 4.2 nM
Binder: RKPY[Tle]L (X stands for Tle) [[Lys9, Tle12]NT(8-13)]

Ki [1]: 13.8 nM | Ki [2]: 3.31 nM
Binder: KRPW[Tle]L (X stands for Tle) [[Lys8, Trp11, Tle12]NT(8-13)]

Ki [1]: 3.1 nM | Ki [2]: 0.85 nM
Binder: RRPW[Tle]L (X stands for Tle) [[Trp11, Tle12]NT(8-13)]

Ki [1]: 0.4 nM | Ki [2]: 0.06 nM
B5: compound XV, SEQ ID NO: 9-[Tle12]NT(8-13) (peptide)
peptide: Propionyl-[dC]M[Pip]RLR[Sar]CRRPY[Tle]L-OH
modifications: disulfide 1-8
SMILES: CCC(=O)N[C@@H]1CSSC[C@@H](C(=O)N[C@@H](CCCNC(=N)N)C(=O)N[C@@H](CCCNC(=N)N)C(=O)N2CCC[C@H]2C(=O)N[C@@H](Cc2ccc(O)cc2)C(=O)N[C@H](C(=O)N[C@@H](CC(C)C)C(=O)O)C(C)(C)C)NC(=O)CN(C)C(=O)[C@H](CCCNC(=N)N)NC(=O)[C@H](CC(C)C)NC(=O)[C@H](CCCNC(=N)N)NC(=O)[C@@H]2CCCCN2C(=O)[C@H](CCSC)NC1=O

Ki [1]: 2.98 nM | Ki [2]: 0.02 nM
B6: compound XVIII, SEQ ID NO: 9-[Trp11, Tle12]NT(8-13) (peptide)
peptide: Propionyl-[dC]M[Pip]RLR[Sar]CRRPW[Tle]L-OH
modifications: disulfide 1-8
SMILES: CCC(=O)N[C@@H]1CSSC[C@@H](C(=O)N[C@@H](CCCNC(=N)N)C(=O)N[C@@H](CCCNC(=N)N)C(=O)N2CCC[C@H]2C(=O)N[C@@H](Cc2c[nH]c3ccccc23)C(=O)N[C@H](C(=O)N[C@@H](CC(C)C)C(=O)O)C(C)(C)C)NC(=O)CN(C)C(=O)[C@H](CCCNC(=N)N)NC(=O)[C@H](CC(C)C)NC(=O)[C@H](CCCNC(=N)N)NC(=O)[C@@H]2CCCCN2C(=O)[C@H](CCSC)NC1=O

Ki [1]: 0.13 nM
B7: compound X, SEQ ID NO: 9-GGG-NT(6-13) (peptide)
peptide: Propionyl-[dC]M[Pip]RLR[Sar]CGGGKPRRPYIL-OH
modifications: disulfide 1-8
SMILES: CCC(=O)N[C@@H]1CSSC[C@@H](C(=O)NCC(=O)NCC(=O)NCC(=O)N[C@@H](CCCCN)C(=O)N2CCC[C@H]2C(=O)N[C@@H](CCCNC(=N)N)C(=O)N[C@@H](CCCNC(=N)N)C(=O)N2CCC[C@H]2C(=O)N[C@@H](Cc2ccc(O)cc2)C(=O)N[C@H](C(=O)N[C@@H](CC(C)C)C(=O)O)[C@@H](C)CC)NC(=O)CN(C)C(=O)[C@H](CCCNC(=N)N)NC(=O)[C@H](CC(C)C)NC(=O)[C@H](CCCNC(=N)N)NC(=O)[C@@H]2CCCCN2C(=O)[C@H](CCSC)NC1=O
